B1: Mi9LOX: Recombinant Mangifera indica 9-lipoxygenase from Alphonso mango, 841 aa, SEQ ID NO: 2 (protein)
chain: MGTVVLMKKNFLDFNDLSASVIDRVDELVGKRVSLQLVSAFNSDPTASNGLQGKVGEPAHLEEWITTITPLVAEESTFKVTFDWDEQIGVPGAFIIKNNHHSGFYLKSLTLEDVPNQGRIHFVCNSWVYPAKRYKKDRVFFTNKTYLPGEMPAPLQYYREQELLNLRGDGTGELQEWDRVYDYAYYNDLGDPDNGKPRPVLGGSTEYPYPRRGRTGRPPAKTDPETESRLPLLTSLNIYVPRDERFGHIKMSDFLGYALKSISQFIEPALESVFDSTPNEFDNFAQIYKLYDEGIQLPNDHFLDDIRNNIPLELLKEIFPTNEDNLFEFPTPQVIQGDRSAWRTDEEFAREMLAGPNPVIIRRVEEFPPRSKLDPELYGDQDSKITKQHIESYLDGLTVEQAIEKNELFILDHHDSLMTYLRRINTTSTKTYASRTILFLKEDGTLKPLAIELSRPHPDGDQYGAISNVYTPSEDEVEGSIWQLAKAYVAVNDSGVHQLISHWLKTHAAIEPFVIATNRQLSVLHPIYKLLQPHFRDTMNINAFARQIVINAGGILETTVFPAKYAMEMSSAIYKDWTFPDQALPEDLKNRGMAVEDPNSPHGLRLLIADYPYAVDGLEIWFAIKNWVKDYCYFYYKSDEMMQKDSGLQSWWKELREEGHGDKKDEPWWPKMQNREELIEACTIIIWIASALHAAVNFGQYPYAGFLPNRPTMSRRFMPEKGTPDYDELESNFDKVFLKTITAQRQTLLGIALIETLSRHSSDEMYLGQRDTPEWTSDKIPLQAFEDFGKKLGDIEVRIITRNHDNMLKNRVGPVNMPYTLLYPTSEGGLTGKGIPNSVSI
modifications: Protein sequence of 7- Dehydrocholestrol reductase (7-DHCR)

Experiments:
[1] = tested on: recombinant 9-lipoxygenase (Mi9LOX); test: Recombinant Mi9LOX enzyme kinetics with LA and ALA as substrates (conjugated diene formation at 234 nm); assay type: biochemical, Mangifera indica; settings: substrate of Mi9LOX
Protocol: The recombinant 9-lipoxygenase (Mi9LOX) activity assays was initially carried out in 250 μl final volume of 100 mM phosphate citrate buffer pH 7.0 at 30° C. containing 200 μM substrate (LA/ALA) and 0.005% Tween20. The activity was measured by formation of the conjugated diene at absorbance of 234 nm, applying an extinction coefficient 25000 M^-1 cm^-1 for both the substrates. […] at 0th min for each reaction is considered as blank and subtracted from […] for given time (t). Similar activity assays were also performed with protein expressed from empty vector for the confirmation of Mi9LOX activity. Optimum pH was determined by calculating activity at varied range of pH in phosphate citrate buffer at 30° C., whereas temperature optima was determined by calculating recombinant 9-lipoxygenase activity in phosphate citrate buffer pH 7 at various temperatures. The purified recombinant 9-lipoxygenase having amino acid sequence as set forth in SEQ ID NO: 2 used linoleic acid (LA) and alpha linolenic acid (ALA) as substrates. Activity of the recombinant 9-lipoxygenase protein was measured spectrophotometrically at 234 nm by the formation of conjugated dienes. For unit calculations, molar extinction coefficient for hydroperoxy linoleate and linolenate was considered 25000 cm^-1M^-1. […]

[2] = tested on: ethylene treated mango fruits; test: In vivo transient over expression of 9-lipoxygenase by Agrobacterium mediated infiltration; set-up: species or system Alphonso mango (Mangifera indica); settings: for δ-decalactone content compared to control tissue / δ-valerolactone content compared to control tissue: transient over expression, 2 days post infiltration, GC-FID
Protocol: The full length polynucleotide sequence (SEQ ID NO: 1) encoding 9-lipoxygenase (SEQ ID NO: 2) was cloned into the pBI121 plant expression vector between CaMV 35S promoter and GusA gene. Terminal primers were designed (SEQ ID NO: 10 and SEQ ID NO: 11) to clone genes at BamHI restriction site. The resulted correct oriented construct pBI121+Mi9LOX and pBI121 empty vector were transformed in the Agrobacterium GV3101 strain for transient expression studies. Separate Agrobacterium cultures (5 mL) were initiated from individual colonies in YEB medium having appropriate antibiotics and incubated overnight at 28° C. This culture was transferred to 50 mL induction medium (0.5% beef extract, 0.1% yeast extract, 0.5% peptone, 0.5% sucrose, 2 mM MgSO4, […], 10 mM MES, pH 5.6) having appropriate antibiotics, and again grown overnight. On the succeeding day, cultures were recovered by centrifugation, resuspended in infiltration medium (10 mM MgCl2, 10 mM MES, […], pH 5.6) till optical density reaches 1.0. This suspension was again incubated at 28° C. with gentle agitation for 2 hrs. Over expression studies for 9LOX was carried out by Agrobacterium mediated infiltration in ethylene treated mango fruits at 3DAH stage by using hypodermic syringe (FIG. 4a). Equal volumes of pBI121+Mi9LOX and pBI121 construct containing cultures were used for infiltration in two different halves of same mango fruit separated by fruit stone. Set of five distinct mango fruits were used for the overexpression study as data set. Infiltrated fruits were kept at 25° C. for 2 days in 12 hr dark and 12 hr light conditions, after 2 days; part from each fruit halves was checked by the Gus staining (Kapila et al. 1997; Spolaore et al. 2001) to confirm expression of Mi9LOX under 35S promoter along with GusA, remaining part of fruit pulp stored in −80° C. until used for the lactone analysis by gas chromatography.
Thus, ethylene treated mangoes were ideal for Agrobacterium infiltration studies as Agrobacterium infiltrated fruits cannot be incubated for more than 2 days due to the risk of bacterial and fungal infection owing to fruit injury during infiltration. Two days post infiltration, a part of fruit was checked by Gus staining (FIG. 4b) to confirm expression of GusA along with the Mi9LOX gene. The remaining tissue was used for the lactone content analysis. The lactones were analysed from control and test region of fruits from Mi9LOX sets. Total 8 lactones viz. γ-butyrolactone, δ-valerolactone, γ-hexalactone, δ-hexalactone, γ-octalactone, δ-octalactone, γ-decalactone and δ-decalactone were detected from all the tissues in GC-MS analysis.

[3] = tested on: recombinant 9-lipoxygenase (Mi9LOX); test: pH and temperature activity profile of recombinant Mi9LOX; assay type: biochemical, Mangifera indica; settings: for Optimum temperature: phosphate citrate buffer pH 7
Protocol: The recombinant 9-lipoxygenase (Mi9LOX) activity assays was initially carried out in 250 μl final volume of 100 mM phosphate citrate buffer pH 7.0 at 30° C. containing 200 μM substrate (LA/ALA) and 0.005% Tween20. The activity was measured by formation of the conjugated diene at absorbance of 234 nm, applying an extinction coefficient 25000 M^-1 cm^-1 for both the substrates. […] at 0th min for each reaction is considered as blank and subtracted from […] for given time (t). Similar activity assays were also performed with protein expressed from empty vector for the confirmation of Mi9LOX activity. Optimum pH was determined by calculating activity at varied range of pH in phosphate citrate buffer at 30° C., whereas temperature optima was determined by calculating recombinant 9-lipoxygenase activity in phosphate citrate buffer pH 7 at various temperatures. The purified recombinant 9-lipoxygenase having amino acid sequence as set forth in SEQ ID NO: 2 used linoleic acid (LA) and alpha linolenic acid (ALA) as substrates. Activity of the recombinant 9-lipoxygenase protein was measured spectrophotometrically at 234 nm by the formation of conjugated dienes. For unit calculations, molar extinction coefficient for hydroperoxy linoleate and linolenate was considered 25000 cm^-1M^-1. 9HpODE and 9HpOTrE products formed by the activity of Mi9LOX on LA and ALA respectively were confirmed by UPLC-HRMS. […] (FIG. 10(a)).

[4] = HRMS intermediate metabolite analysis

Molecule | Km [1] [µM] | Vmax [1] | δ-decalactone content compared to control tissue [2] [fold] | δ-valerolactone content compared to control tissue [2] [fold] | 9HpODE in control and test tissues [2, 4] | increase in 9HpOTrE upon Mi9LOX over expression [2, 4] [folds] | increase of Mi9LOX transcripts in test tissues as compared to the control tissues ([2]; upon Agrobacterium infiltration) | reduction in the activity ([3]; at 35° C.) [%] | reduced activity ([3]; at 50° C.) [%] | reduction in the activity ([3]; at pH 5 and 9) [%] | Optimum pH ([3]; phosphate citrate buffer at 30° C.) | Optimum temperature [3] [°C] | Optimum temperature ([3]; listed as recombinant 9-lipoxygenase) [°C]
CCCCC/C=C\C/C=C\CCCCCCCC(=O)O [LA, linoleic acid] | 354 | LA- 611.11 ± 55.55 μM min^−1mg^−1 | – | – | – | – | – | – | – | – | – | – | –
SEQ ID NO: 1: 2526 bp cDNA polynucleotide encoding 9-lipoxygenase, cloned in pBI121 and agroinfiltrated for transient over expression | – | – | 1.48 | 1.08 | – | – | – | – | – | – | – | – | –
B1 | – | – | 1.48 | 1.08 | not detected | 1.9 | 1.73 | 75 | 69 | 40 | 6.5 | 37 | 35

Source: patent US11339381B2, “Nucleotide sequence encoding 9-lipoxygenase and recombinant constructs comprising the same” (Council of Scientific & Industrial Research, priority 2016, dated 2022)
